Assay results taken from the supplement of paper PMC9112550, “Optimization of the antimicrobial peptide Bac7 by deep mutational scanning” (BMC Biology, 2022).

Test system: Escherichia coli TOP10
Assay: shrunken log2 fold change of peptide-encoding DNA abundance (4.5 h post-induction vs induction); higher = less antimicrobial activity (less host growth inhibition)
Conditions: time post-induction: 4.5 h; library: site-saturation at positions 5, 18, 19, 20
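Note: peptides expressed intracellularly from a pBAD plasmid library in pooled LB shake-flask culture, induced with 0.3% L-arabinose, DNA abundance read by NGS, three biological replicates, DESeq2 with apeglm shrinkage.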

Sequence | shrunken log2 fold change
RRIRPRPPRLPRPRPRPSVAPRP | 0.0839
RRIRPRPPRLPRPRPRPPIDPRP | 0.216
RRIRKRPPRLPRPRPRPIRKPRP | 0.092
RRIRMRPPRLPRPRPRPSWMPRP | -0.0767
RRIRWRPPRLPRPRPRPDDGPRP | 0.305
RRIRDRPPRLPRPRPRPNQGPRP | 0.125
RRIRGRPPRLPRPRPRPDAHPRP | 0.421
RRIRARPPRLPRPRPRPEKGPRP | -0.0434
RRIRWRPPRLPRPRPRPLKPPRP | 0.0915
RRIRARPPRLPRPRPRPEKDPRP | 0.366
RRIRERPPRLPRPRPRPPKDPRP | 0.00712
RRIRVRPPRLPRPRPRPSFFPRP | -0.2
RRIRQRPPRLPRPRPRPCKSPRP | 0.00854
RRIRMRPPRLPRPRPRPLNEPRP | 0.216
RRIRTRPPRLPRPRPRPQLQPRP | -0.0711
RRIRVRPPRLPRPRPRPAHCPRP | 0.122
RRIRFRPPRLPRPRPRPRECPRP | 0.277
RRIRARPPRLPRPRPRPQNFPRP | -0.0953
RRIRMRPPRLPRPRPRPGTMPRP | -0.115
RRIRCRPPRLPRPRPRPCGDPRP | 0.0996
RRIRFRPPRLPRPRPRPLGRPRP | 0.109
RRIRQRPPRLPRPRPRPYAFPRP | -0.175
RRIRIRPPRLPRPRPRPEKIPRP | -0.0431
RRIRMRPPRLPRPRPRPVNRPRP | 0.105
RRIRVRPPRLPRPRPRPKGSPRP | 0.0616

Sequence | shrunken log2 fold change
RRIRQRPPRLPRPRPRPLYQPRP | -0.185
RRIRERPPRLPRPRPRPVTPPRP | 0.0669
RRIRGRPPRLPRPRPRPLSAPRP | 0.507
RRIRTRPPRLPRPRPRPDHKPRP | -0.117
RRIRGRPPRLPRPRPRPPNRPRP | 0.427
RRIRERPPRLPRPRPRPKPDPRP | 0.0317
RRIRVRPPRLPRPRPRPEGKPRP | 0.217
RRIRSRPPRLPRPRPRPFLGPRP | -0.186
RRIRERPPRLPRPRPRPWKSPRP | -0.0163
RRIRTRPPRLPRPRPRPMLLPRP | -0.0757
RRIRRRPPRLPRPRPRPDANPRP | 0.555
RRIRIRPPRLPRPRPRPMWFPRP | -0.0453
RRIRRRPPRLPRPRPRPFNAPRP | -0.0138
RRIRLRPPRLPRPRPRPRENPRP | 0.345
RRIRTRPPRLPRPRPRPDPNPRP | 0.0586
RRIRDRPPRLPRPRPRPDRYPRP | -0.395
RRIRDRPPRLPRPRPRPMQDPRP | -0.0272
RRIRPRPPRLPRPRPRPQITPRP | -0.314
RRIRIRPPRLPRPRPRPMIMPRP | -0.615
RRIRMRPPRLPRPRPRPQTKPRP | 0.205
RRIRCRPPRLPRPRPRPFTIPRP | -0.0284
RRIRPRPPRLPRPRPRPKMNPRP | -0.273
RRIRQRPPRLPRPRPRPENHPRP | -0.176
RRIRNRPPRLPRPRPRPFLRPRP | -0.0221
RRIRIRPPRLPRPRPRPTNQPRP | -0.28

Sequence | shrunken log2 fold change
RRIRDRPPRLPRPRPRPGFFPRP | 0.345
RRIRWRPPRLPRPRPRPRKCPRP | 0.4
RRIRKRPPRLPRPRPRPQSHPRP | 0.353
RRIRVRPPRLPRPRPRPFCNPRP | 0.0823
RRIRIRPPRLPRPRPRPVATPRP | -0.374
RRIRCRPPRLPRPRPRPYVLPRP | -0.903
RRIRWRPPRLPRPRPRPHASPRP | 0.134
RRIRFRPPRLPRPRPRPRGMPRP | 0.2
RRIRTRPPRLPRPRPRPFMGPRP | -0.0574
RRIRDRPPRLPRPRPRPDQFPRP | -0.00947
RRIRKRPPRLPRPRPRPWRPPRP | 0.177
RRIRDRPPRLPRPRPRPMGMPRP | -0.069
RRIRIRPPRLPRPRPRPGRQPRP | 0.172
RRIRPRPPRLPRPRPRPFHYPRP | -1.27
RRIRKRPPRLPRPRPRPPGYPRP | 0.176
RRIRKRPPRLPRPRPRPISVPRP | -0.056
RRIRSRPPRLPRPRPRPRFCPRP | 0.23
RRIRLRPPRLPRPRPRPVIHPRP | -1.64
RRIRTRPPRLPRPRPRPRNGPRP | -0.0659
RRIRQRPPRLPRPRPRPGTPPRP | 0.000485
RRIRTRPPRLPRPRPRPYHHPRP | -0.59
RRIRERPPRLPRPRPRPWTVPRP | 0.0377
RRIRFRPPRLPRPRPRPRQPPRP | 0.68
RRIRKRPPRLPRPRPRPVYGPRP | -0.0742
RRIRRRPPRLPRPRPRPQPPPRP | 0.413
